# T1: TFBg (Halobacterium sp. NRC-1, UniProt Q9HSF7 1-323)
# T1 sequence: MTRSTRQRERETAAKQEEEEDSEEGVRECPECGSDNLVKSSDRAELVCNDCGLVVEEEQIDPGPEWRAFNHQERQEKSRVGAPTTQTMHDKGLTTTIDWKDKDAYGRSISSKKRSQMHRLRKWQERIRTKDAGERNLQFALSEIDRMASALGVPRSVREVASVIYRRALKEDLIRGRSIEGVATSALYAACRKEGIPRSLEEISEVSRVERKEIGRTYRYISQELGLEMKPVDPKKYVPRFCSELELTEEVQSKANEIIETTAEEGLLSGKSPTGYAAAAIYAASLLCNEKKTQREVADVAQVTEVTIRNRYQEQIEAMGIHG
# T2: TFBb (Halobacterium sp. NRC-1, UniProt Q9HRE6 1-325)
# T2 sequence: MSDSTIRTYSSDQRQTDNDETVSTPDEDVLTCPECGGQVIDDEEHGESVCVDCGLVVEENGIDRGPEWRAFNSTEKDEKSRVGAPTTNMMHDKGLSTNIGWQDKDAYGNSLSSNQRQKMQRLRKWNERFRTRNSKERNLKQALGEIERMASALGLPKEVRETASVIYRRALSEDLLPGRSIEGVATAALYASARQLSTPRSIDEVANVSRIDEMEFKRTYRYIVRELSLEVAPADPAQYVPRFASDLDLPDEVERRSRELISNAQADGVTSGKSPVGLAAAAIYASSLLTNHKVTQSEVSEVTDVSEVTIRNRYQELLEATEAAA
# B1: FM (BRE/TATA of Phsp5 replaced by Pbop) (dsDNA)
# DNA 1: GCGGGATCCTCGTAGAGTTACACGAAATGCGGACATAGTTTTGGCTGGAGTCAAGGCATATGAGT
# DNA 2: ACTCATATGCCTTGACTCCAGCCAAAACTATGTCCGCATTTCGTGTAACTCTACGAGGATCCCGC
# Assays:
# [1] = biological target: T1, TFBg; assay: EMSA
# [2] = biological target: T2, TFBb; assay: EMSA
binder,measurement,setting,value
B1,binding result,[1],no binding
same,binding result,[2],no binding
